# Data as given in US20100062980A1, “THERAPEUTIC USES OF BETA-ANTAGONISTS” (priority 2006, published 2010).
# “Also recorded” adds a separate entry of the source.
# B1: β-cardiotoxin: three-finger toxin protein isolated from Ophiophagus hannah (king cobra) venom, SEQ ID No.3, β-adrenergic receptor blocker (protein)
# chain: RKCLNTPLPLIYTTCPIGQDKCVKMTIKKLPSKYDVIRGCIDICPKSSADVEVLCCDTNKCNK
# Experiments:
# [1] = system: Swiss albino male mice; type: in vivo; settings: mice
# Source text: (§1) Swiss albino male mice (˜20 g) were used for the in vivo toxicity study. Male Sprague-Dawley (SD) rats were used for electrocardiogram (ECG) monitoring (3-4 weeks old, ˜80-100 g) and the Langendorff isolated perfused heart experiments (8 weeks old, ˜250 g). Animals were acquired from the university Laboratory Animal Center (LAC) and were acclimatized to the Animal Holding Unit surroundings for at least 3 days prior to the experiments. Animals were kept under standard conditions with food and water available ad lib. All animal experiments were conducted according to the protocol (776/05a) approved by the Institutional Animal Care and Use Committee (IACUC) of the National University of Singapore.
# (§2) The protein was dissolved in 200 μl of 0.9% NaCl (Braun, Malaysia) and administered through the intra-peritoneal (i.p.) route for the in vivo toxicity study in mice. Intra-tail vein (i.t.v.) administration was done in the ECG monitoring study in rats. The various protein doses were dissolved in 200 μl of 0.9% NaCl solution and injected into the tail vein using a 27 G ½ needle (Becton Dickinson, Franklin Lakes, N.J.) held at an angle of about 10° to the tail. The infusion was made very slowly and at a steady rate.
# After purification of the protein from snake venom, i.p. doses of 1 mg/kg, 10 mg/kg and 100 mg/kg were administered to healthy male mice (three animals per group) and the symptoms were observed and recorded. 0.9% NaCl was injected as control. Postmortem examinations were conducted on the animals after their death/sacrifice.
# [2] = system: extrinsic pathway of blood coagulation (human plasma); assay: Anticoagulant activity, prothrombin time; type: biochemical; settings: 50 μM protein per assay, vs control
# Description: (§3) The anticoagulant activity of the purified protein was tested by two coagulation tests using a BBL fibrometer. Blood plasma was collected from healthy human volunteers.
# Prothrombin time—The prothrombin times were measured according to the method of Quick (25). 100 μl of 50 mM Tris-HCl buffer (pH 7.4), 100 μl of plasma and 50 μl of the protein dissolved in the assay buffer were preincubated for 2 min at 37° C. Clotting was initiated by the addition of 150 μl of thromboplastin with calcium reagent (Sigma-Aldrich, St Louis, Mo.).
# [3] = system: intrinsic pathway of blood coagulation (human plasma); assay: Anticoagulant activity, recalcification time; type: biochemical; settings: 50 μM protein per assay, vs control
# Description: as §3
# Recalcification time—The recalcification times were measured according to the method of Langdell et al. (26). 100 μl of 50 mM Tris-HCl buffer (pH 7.4), 100 μl of plasma and 50 μl of the protein dissolved in the assay buffer were preincubated for 2 min at 37° C. Clotting was initiated by the addition of 50 μl of 50 mM CaCl2.
# [4] = system: anesthetized male rats; assay: Electrocardiogram monitoring and heart rate determination; type: in vivo, Sprague-Dawley rats; settings: i.t.v., 1 mg/kg, 10 min after administration (FIG. 8)
# Source text: as §1, §2
# For electrocardiogram (ECG) measurements, Sprague-Dawley rats were anesthetized with an i.p. dose of 7% chloral hydrate (5 ml/kg). […]
# [5] = system: Langendorff isolated perfused rat hearts; assay: Langendorff isolated perfused heart; settings: 5 μM in KH solution, 10 min
# Description: Rats were anesthetized with 7% chloral hydrate (5 ml/kg). 2 ml of 50 I.U. heparin (David Bull Laboratories, Warwick, UK) was injected i.p. 15 min prior to sacrificing the animal. The heart was excised rapidly and placed in oxygenated Krebs-Henseleit (KH) solution (in mM/1: NaCl 118.0, KCl 4.5, KH2PO4 1.4, MgSO4 1.2, NaHCO3 25, CaCl2 1.4 and glucose 11; pH 7.4) before the aorta was cannulated on the Langendorff apparatus. Non-recirculating mode of retrograde perfusion with KH solution was carried out at a constant flow (6-7 ml/min) at 37° C. The buffer was continuously bubbled with 95% O2 and 5% CO2. The hearts were allowed to equilibrate for 30 min and in study groups the buffer flow was switched to a second reservoir which contained 5 μM of the protein dissolved in KH solution, plain KH solution was passed for further 15 min in case of control group.
# A water-filled latex balloon was attached to a pressure transducer and inserted through the mitral valve into the left ventricle (LV) through an incision in the left atrium. The pressure transducer was connected to a Powerlab (ADInstruments, Castle Hill, NSW, Australia) data recording system. The following indices of cardiac performance were measured and averaged from ten beats for each condition: heart rate (HR, in beats/min) and left ventricle diastolic end pressure (LVDEP, in mmHg), which is an index of contractile activity. […]
molecule,measurement,setting,value
B1,postmortem examination,"[1]; i.p., 100 mg/kg",did not reveal any hemorrhage or visual damage to internal organs
same,time to death,"[1]; i.p., 100 mg/kg",about 30 min
same,dose up to which the protein was not lethal,[1]; intraperitoneal,≤ 10 mg/kg
same,"change in clotting time, prothrombin time",[2],does not show any hemolytic or anticoagulant activity; also recorded: did not cause any significant changes in the clotting time
same,"change in clotting time, recalcification time",[3],does not show any hemolytic or anticoagulant activity; also recorded: did not cause any significant changes in the clotting time
same,change in heart rate (ECG),[4],dose-dependent decrease of the heart rate; also recorded: decrease in the heart rate; also recorded: dose-dependent decrease in heart rate
same,change in contractility (LVDEP),[5],without any significant change in the contractility; also recorded: without affecting the contractility
same,change in heart rate,[5],dose-dependent decrease of the heart rate; also recorded: marked reduction in the heart rate
